Data published in publication PMC4528719, “Functional role of dimerization and CP190 interacting domains of CTCF protein in Drosophila melanogaster” (BMC Biology, 2015).

Tests used:
[1] = molecular target: T1, thioredoxin-tagged CP190-BTB (Drosophila); assay: cross-linking; CP190-BTB constant at 20 μM, alone or mixed with CTCF-CTD at stated molar ratios, 2 h (legend of Fig. 4b: 1 h) at room temperature, then glutaraldehyde; buffer B; SDS-PAGE, Coomassie or silver staining
T1 sequence (Q24478 whole entry, looked up): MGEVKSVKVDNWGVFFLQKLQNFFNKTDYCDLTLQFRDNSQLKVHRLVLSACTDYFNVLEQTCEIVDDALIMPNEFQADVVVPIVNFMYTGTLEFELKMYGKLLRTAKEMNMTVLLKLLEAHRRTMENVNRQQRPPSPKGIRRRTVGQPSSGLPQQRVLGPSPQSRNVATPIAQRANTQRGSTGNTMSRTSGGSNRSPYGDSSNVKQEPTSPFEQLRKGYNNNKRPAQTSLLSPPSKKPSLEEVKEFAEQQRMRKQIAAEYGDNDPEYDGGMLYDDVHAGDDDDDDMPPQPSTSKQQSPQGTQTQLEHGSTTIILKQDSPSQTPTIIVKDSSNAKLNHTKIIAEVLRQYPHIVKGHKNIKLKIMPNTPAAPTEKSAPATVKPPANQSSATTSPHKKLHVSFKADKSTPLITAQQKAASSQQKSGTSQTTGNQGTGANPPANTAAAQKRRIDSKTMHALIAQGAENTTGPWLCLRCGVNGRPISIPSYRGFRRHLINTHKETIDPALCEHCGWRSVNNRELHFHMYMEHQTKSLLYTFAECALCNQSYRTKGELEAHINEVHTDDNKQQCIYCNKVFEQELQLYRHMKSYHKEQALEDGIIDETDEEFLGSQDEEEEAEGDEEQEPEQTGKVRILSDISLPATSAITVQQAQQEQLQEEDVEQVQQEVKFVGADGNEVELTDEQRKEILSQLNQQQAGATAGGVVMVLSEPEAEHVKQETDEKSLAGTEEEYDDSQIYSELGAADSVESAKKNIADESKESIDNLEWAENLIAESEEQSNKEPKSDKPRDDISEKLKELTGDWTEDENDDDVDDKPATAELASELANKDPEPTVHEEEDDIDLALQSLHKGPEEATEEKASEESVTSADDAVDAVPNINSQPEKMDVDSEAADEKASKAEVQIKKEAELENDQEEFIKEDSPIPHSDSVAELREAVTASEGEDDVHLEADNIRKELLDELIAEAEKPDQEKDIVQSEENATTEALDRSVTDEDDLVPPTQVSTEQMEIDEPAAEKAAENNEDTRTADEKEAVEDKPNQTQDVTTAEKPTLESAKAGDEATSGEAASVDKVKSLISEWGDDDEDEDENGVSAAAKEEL

[2] = molecular target: the molecule itself; assay: cross-linking; one protein alone at 5 μM, increasing glutaraldehyde, 10 min at room temperature, 20 mM HEPES-KOH pH 7.7, 150 mM NaCl, 20 mM imidazole, 1 mM β-mercaptoethanol; SDS-PAGE, silver staining
[3] = molecular target: T2, dCTCF–CTD 612–818 protein (Drosophila melanogaster, UniProt Q9VS55 612-818); assay: pull-down; GST–CP190 fragments on glutathione agarose, recombinant dCTCF-CTD in solution; 2 h room temperature, buffer C; washes with 500 mM NaCl (Fig. 3f); details: both partners purified
T2 construct: also called CTD protein; source: E. coli BL21, purified (Ni-NTA)
T2 sequence (looked up): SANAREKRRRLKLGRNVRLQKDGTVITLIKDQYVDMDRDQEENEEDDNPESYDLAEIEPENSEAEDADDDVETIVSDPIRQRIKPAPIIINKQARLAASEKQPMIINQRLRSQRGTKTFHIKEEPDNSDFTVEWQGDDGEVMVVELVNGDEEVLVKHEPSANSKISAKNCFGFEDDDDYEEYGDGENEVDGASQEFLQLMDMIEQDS

thioredoxin-tagged CP190-BTB (domain or fragment)
stoichiometry N [1]: 2

B1: dCTCF NTD 125–180 (domain or fragment, Drosophila melanogaster, UniProt Q9VS55 125-180, looked up)
chain: STATNKSINLRPAKSTPKATTSKPPPEPKAISVRPARAAAAKAKQSAMPPPPALVV
notes: dCTCF, Drosophila melanogaster, residues 125-180; source: E. coli BL21, purified (Ni-NTA)
binding result [2]: binds

B2: dCTCF–CTD 612–818 protein (domain or fragment)
chain: SANAREKRRRLKLGRNVRLQKDGTVITLIKDQYVDMDRDQEENEEDDNPESYDLAEIEPENSEAEDADDDVETIVSDPIRQRIKPAPIIINKQARLAASEKQPMIINQRLRSQRGTKTFHIKEEPDNSDFTVEWQGDDGEVMVVELVNGDEEVLVKHEPSANSKISAKNCFGFEDDDDYEEYGDGENEVDGASQEFLQLMDMIEQDS
stoichiometry N [1]: 2 BTB per CTD

B3: thioredoxin-tagged dCTCF NTD 1–163 (domain or fragment, Drosophila melanogaster, UniProt Q9VS55 1-163, looked up)
chain: MPRRTKKDEDPEDLQTFLNNFHKEIEGNSDEKVVNTILEAISAEAIDLDENGAEAGGSKPMEEAEADLDHAEEAEEEEEDDEDKYFIDDEGNCYIKTTPKKQKELQKKLKQAAAKPGKATRSVVSTATNKSINLRPAKSTPKATTSKPPPEPKAISVRPARAA
notes: dCTCF, Drosophila melanogaster, residues 1-163; pET32a(+) vector; purified on Ni-NTA, so a His tag is likely present; source: E. coli BL21, purified (Ni-NTA)
stoichiometry N [2]: ~4

B4: GST–CP190 BTB domain (1–126) (domain or fragment, Drosophila, UniProt Q24478 1-126, looked up)
chain: MGEVKSVKVDNWGVFFLQKLQNFFNKTDYCDLTLQFRDNSQLKVHRLVLSACTDYFNVLEQTCEIVDDALIMPNEFQADVVVPIVNFMYTGTLEFELKMYGKLLRTAKEMNMTVLLKLLEAHRRTM
binding result [3]: binds

B5: thioredoxin NTD 1–205 fusion protein of dCTCF (domain or fragment, Drosophila melanogaster, UniProt Q9VS55 1-205, looked up)
chain: MPRRTKKDEDPEDLQTFLNNFHKEIEGNSDEKVVNTILEAISAEAIDLDENGAEAGGSKPMEEAEADLDHAEEAEEEEEDDEDKYFIDDEGNCYIKTTPKKQKELQKKLKQAAAKPGKATRSVVSTATNKSINLRPAKSTPKATTSKPPPEPKAISVRPARAAAAKAKQSAMPPPPALVVKVPAPRGRPRKNPVIPKPEPMDLER
notes: pET32a(+) vector; purified on Ni-NTA, so a His tag is likely present; source: E. coli BL21, purified (Ni-NTA)
binding result [2]: binds

B6: dCTCF NTD 70–163 (domain or fragment, Drosophila melanogaster, UniProt Q9VS55 70-163, looked up)
chain: HAEEAEEEEEDDEDKYFIDDEGNCYIKTTPKKQKELQKKLKQAAAKPGKATRSVVSTATNKSINLRPAKSTPKATTSKPPPEPKAISVRPARAA
notes: dCTCF, Drosophila melanogaster, residues 70-163; source: E. coli BL21, purified (Ni-NTA)
binding result [2]: binds
